In IntAct's records for PubMed 32296183:

How the values were obtained:
bik_human BIK = bik_human BIK (UniProt Q13323)
cgrf1_human CGRRF1 = target: T1, cgrf1_human CGRRF1 (UniProt Q99675)
T1 sequence: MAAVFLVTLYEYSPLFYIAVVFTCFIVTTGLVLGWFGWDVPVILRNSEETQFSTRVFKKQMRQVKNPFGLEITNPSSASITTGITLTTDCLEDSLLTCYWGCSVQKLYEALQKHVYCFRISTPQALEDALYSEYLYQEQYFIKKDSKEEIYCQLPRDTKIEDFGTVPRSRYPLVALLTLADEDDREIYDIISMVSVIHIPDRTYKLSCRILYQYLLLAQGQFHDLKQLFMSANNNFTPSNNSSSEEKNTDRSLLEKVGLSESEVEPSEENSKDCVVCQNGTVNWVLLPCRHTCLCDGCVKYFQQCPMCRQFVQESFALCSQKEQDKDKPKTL

pdz1i_human PDZK1IP1 = target: T2, pdz1i_human PDZK1IP1 (UniProt Q13113)
T2 sequence: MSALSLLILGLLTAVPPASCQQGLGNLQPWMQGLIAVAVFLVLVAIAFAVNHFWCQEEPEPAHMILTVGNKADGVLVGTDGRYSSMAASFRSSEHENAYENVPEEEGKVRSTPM

amgo1_human AMIGO1 = target: T3, amgo1_human AMIGO1 (UniProt Q86WK6)
T3 sequence: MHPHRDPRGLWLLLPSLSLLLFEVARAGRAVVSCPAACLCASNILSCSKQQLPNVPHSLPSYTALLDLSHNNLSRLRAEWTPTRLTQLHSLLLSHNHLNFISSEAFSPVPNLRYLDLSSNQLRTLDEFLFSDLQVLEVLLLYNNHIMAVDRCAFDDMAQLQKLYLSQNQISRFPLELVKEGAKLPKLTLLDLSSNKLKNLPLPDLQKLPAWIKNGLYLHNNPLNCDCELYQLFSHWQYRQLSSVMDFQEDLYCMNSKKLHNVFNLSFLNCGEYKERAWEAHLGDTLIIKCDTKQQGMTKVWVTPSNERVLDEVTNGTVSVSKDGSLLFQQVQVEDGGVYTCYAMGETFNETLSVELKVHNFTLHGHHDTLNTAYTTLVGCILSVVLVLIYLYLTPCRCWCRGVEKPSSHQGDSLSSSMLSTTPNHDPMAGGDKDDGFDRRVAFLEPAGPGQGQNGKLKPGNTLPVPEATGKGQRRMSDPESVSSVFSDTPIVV

lrc4c_human LRRC4C = target: T4, lrc4c_human LRRC4C (UniProt Q9HCJ2)
T4 sequence: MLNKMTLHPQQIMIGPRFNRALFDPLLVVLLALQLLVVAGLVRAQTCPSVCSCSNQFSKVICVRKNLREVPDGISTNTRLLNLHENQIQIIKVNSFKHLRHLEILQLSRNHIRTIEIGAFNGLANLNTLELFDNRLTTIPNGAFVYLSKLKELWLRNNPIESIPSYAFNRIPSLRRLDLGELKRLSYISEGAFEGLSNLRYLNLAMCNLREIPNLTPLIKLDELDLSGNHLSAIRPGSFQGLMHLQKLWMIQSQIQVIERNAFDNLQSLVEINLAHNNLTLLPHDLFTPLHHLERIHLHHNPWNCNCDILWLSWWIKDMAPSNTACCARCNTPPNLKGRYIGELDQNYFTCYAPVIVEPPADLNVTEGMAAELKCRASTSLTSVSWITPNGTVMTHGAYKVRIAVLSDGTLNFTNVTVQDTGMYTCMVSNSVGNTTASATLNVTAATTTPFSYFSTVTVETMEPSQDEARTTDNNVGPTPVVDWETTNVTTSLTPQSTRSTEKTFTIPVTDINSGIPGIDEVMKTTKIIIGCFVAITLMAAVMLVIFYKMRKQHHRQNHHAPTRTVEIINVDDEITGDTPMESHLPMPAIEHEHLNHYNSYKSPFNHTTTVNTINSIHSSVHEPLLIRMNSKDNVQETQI

tmem9_human TMEM9 = target: T5, tmem9_human TMEM9 (UniProt Q9P0T7)
T5 sequence: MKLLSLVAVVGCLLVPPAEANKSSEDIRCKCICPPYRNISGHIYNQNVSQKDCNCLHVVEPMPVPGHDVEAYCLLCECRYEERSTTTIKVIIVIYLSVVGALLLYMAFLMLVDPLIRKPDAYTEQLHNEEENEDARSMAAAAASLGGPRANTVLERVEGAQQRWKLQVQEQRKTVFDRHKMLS

cld7_human CLDN7 = target: T6, cld7_human CLDN7 (UniProt O95471)
T6 sequence: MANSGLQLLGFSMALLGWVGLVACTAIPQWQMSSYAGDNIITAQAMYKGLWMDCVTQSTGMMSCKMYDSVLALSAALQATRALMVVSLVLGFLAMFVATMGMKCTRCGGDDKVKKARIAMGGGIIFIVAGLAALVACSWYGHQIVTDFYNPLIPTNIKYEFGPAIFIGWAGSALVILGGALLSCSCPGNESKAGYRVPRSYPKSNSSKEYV

FAM209A = target: T7, FAM209A (UniProt Q5JX71)
T7 sequence: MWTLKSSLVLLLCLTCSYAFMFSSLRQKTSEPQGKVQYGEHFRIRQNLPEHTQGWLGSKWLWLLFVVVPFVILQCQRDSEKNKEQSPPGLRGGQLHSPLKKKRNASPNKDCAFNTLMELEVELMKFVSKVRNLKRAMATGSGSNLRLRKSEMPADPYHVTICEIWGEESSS

cisd2_human CISD2 = target: T8, cisd2_human CISD2 (UniProt Q8N5K1)
T8 sequence: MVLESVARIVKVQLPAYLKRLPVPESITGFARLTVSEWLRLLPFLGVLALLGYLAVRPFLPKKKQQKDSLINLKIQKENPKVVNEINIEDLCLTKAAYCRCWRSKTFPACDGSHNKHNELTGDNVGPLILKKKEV

cplx4_human CPLX4 = target: T9, cplx4_human CPLX4 (UniProt Q7Z7G2)
T9 sequence: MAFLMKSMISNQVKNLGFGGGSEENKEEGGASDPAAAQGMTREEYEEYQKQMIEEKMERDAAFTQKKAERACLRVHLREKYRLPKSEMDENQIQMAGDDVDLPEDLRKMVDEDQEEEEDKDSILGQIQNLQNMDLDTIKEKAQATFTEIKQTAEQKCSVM

ssmm1_human SSMEM1 = target: T10, ssmm1_human SSMEM1 (UniProt Q8WWF3)
T10 sequence: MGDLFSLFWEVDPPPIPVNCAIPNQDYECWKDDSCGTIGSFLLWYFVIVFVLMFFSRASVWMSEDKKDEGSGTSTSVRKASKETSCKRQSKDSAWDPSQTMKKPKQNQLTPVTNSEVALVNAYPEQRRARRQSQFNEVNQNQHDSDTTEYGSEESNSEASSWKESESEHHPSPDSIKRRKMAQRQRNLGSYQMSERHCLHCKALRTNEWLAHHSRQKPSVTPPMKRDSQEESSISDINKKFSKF

Chain of bik_human BIK (Q13323 whole entry): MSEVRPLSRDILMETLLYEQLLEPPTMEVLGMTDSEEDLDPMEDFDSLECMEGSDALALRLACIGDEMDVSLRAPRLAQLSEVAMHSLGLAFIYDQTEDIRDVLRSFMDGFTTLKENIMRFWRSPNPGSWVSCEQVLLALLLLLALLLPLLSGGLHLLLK

Acyltransferase PGAP2 (Homo sapiens) (from UniProt Q9UHJ9-5) T160I
effect of a mutation on the interaction (bik_human BIK): with no effect
effect of a mutation on the interaction (cgrf1_human CGRRF1): with no effect
effect of a mutation on the interaction (pdz1i_human PDZK1IP1): with no effect
effect of a mutation on the interaction (amgo1_human AMIGO1): disrupting interaction strength
effect of a mutation on the interaction (lrc4c_human LRRC4C): with no effect
effect of a mutation on the interaction (tmem9_human TMEM9): with no effect
effect of a mutation on the interaction (cld7_human CLDN7): disrupting interaction strength
effect of a mutation on the interaction (FAM209A): with no effect
effect of a mutation on the interaction (cisd2_human CISD2): with no effect
effect of a mutation on the interaction (cplx4_human CPLX4): with no effect
effect of a mutation on the interaction (ssmm1_human SSMEM1): with no effect
